2 compounds from patent publication US20220380763A1, “NUCLEIC ACID DELIVERY ENHANCER” (NATIONAL UNIVERSITY CORPORATION KOCHI UNIVERSITY, priority 2019, published 2022) can be followed below.

Data set [1] concerns RNA duplex (siRNA, SEQ ID NO: 1 and 2). To be noted: for Tm: 4 μM nucleic acid duplex, 100 mM NaCl, pH 7.0; for ΔTm: versus no peptide (72.3). How it is done: The melting temperature of the nucleic acid duplex was measured in the presence and absence of the cationic oligopeptide or folic acid-cationic oligopeptide complex synthesized in Example 1.
In this Example, the cationic oligopeptide (Dab8) or the folic acid-cationic oligopeptide (Fol-Dab8A or Fol-Dab8B) was added to an annealed RNA duplex, and the melting temperature (Tm value) was measured. As the RNA duplex, an oligonucleotide pair consisting of the following sequences was used as an siRNA.
After 144 μL of 50 μM nucleic acid solution was prepared and kept at 95° C. for 5 minutes, it was slowly cooled to 4° C. at −0.5° C./min. The solution was added to a mixed solution of pH 7.0 buffer containing 200 mM NaCl and 20 mM Na2HPO4—NaH2PO4 in OTSUKA DISTILLED WATER, and 0.1 mM peptide aqueous solution, and samples were adjusted to a final concentration of 10 mM Na2HPO4—NaH2PO4, 100 mM NaCl, 4 μM nucleic acid duplex, and 0, 4, 8, 12, 16, and 20 μM peptide (0, 1, 2, 3, 4, and 5 equivalents, respectively).
The temperature was increased from 20° C. to 95° C. at 0.5° C./min, and the absorbance at 260 nm was measured to determine a melting curve. The absorbance at 320 nm was measured to remove background noise, and a melting curve was created by subtracting the absorbance at 320 nm from the absorbance at 260 nm, and the Tm value was determined by a median method.

The test system of data set [2] is bovine pancreas-derived RNase A. As to conditions: 1 or more equivalents; 10 nM siRNA, 37° C., 60 minutes. How it is done:
RNA-degrading enzyme resistance of the nucleic acid duplex was tested in the presence of a cationic oligopeptide.
In this Example, peptides were added to the annealed RNA duplex to form a complex, and the rate of RNA degradation was measured.
Subsequently, the mixture was kept at 95° C. for 5 minutes and then slowly cooled to 4° C. at −0.5° C./min.
Thereafter, 15 μL of 100 μg/mL bovine pancreas-derived RNase A (manufactured by F. Hoffmann-La Roche, Ltd.) was added with stirring at 37° C., and fluorescence intensity measurement was started to track changes over time (excitation wavelength: 490 nm; measurement wavelength: 520 nm; and measurement time: 60 minutes).

Another data set deals with NUP85. To be noted: NUP85 siRNA (SEQ ID NOs: 7 and 8) in combination; Dab8 1 eq, Fol-Dab8A 3 eq, Fol-Dab8B 1 eq; S2-013 cells, 48 hours. How it is done: (§1) Scrambled control siRNA (SEQ ID NOs: 3 and 4), SNORA18 siRNA (SEQ ID NOs: 5 and 6), NUP85 siRNA (SEQ ID NOs: 7 and 8), WASF2 siRNA (SEQ ID NOs: 9 and 10), and SNORA22 siRNA (SEQ ID NOs: 11 and 12), to which a cationic oligopeptide or a folic acid-cationic peptide was added (a complex of Dab8 with siRNA in 1 equivalent, a complex of Fol-Dab8A with siRNA in 3 equivalents, and a complex of Fol-Dab8B with siRNA in 1 equivalent), were each added to the culture solution the S2-013 cells in a 6-well plate (Thermo Fisher Scientific Inc.) (1.0×10^5 cells/well), and the cells were recovered after 48 hours.
(§2) Semi-quantitative RT-PCR was performed using RNA from the recovered cells to confirm the knockdown effects of SNORA18, NUP85, WASF2, and SNORA22 in the cells.
(§3) Specifically, the total RNA obtained from the S2-013 cells was reverse-transcribed using StrataScript reverse transcriptase (Agilent) and random primers. Appropriate dilutions of each single-stranded cDNA were prepared for subsequent PCR amplification. GAPDH mRNA was used as an internal quantitative control.
(§4) PCR reactions were performed on a TaKaRa PCR Thermal Cycler Dice Gradient with initial denaturation at 94° C. for 2 minutes, followed by 94° C. for 30 seconds, 58° C. for 30 seconds, and 72° C. for 1 minute for 21 cycles (for GAPDH) or 25 cycles (for SNORA18, NUP85, WASF2, and SNORA22). Scanning and densitometric analysis for band intensity measurements were performed using the Quantity One analysis system (Bio-Rad).

The subject of a further data set is SNORA18. To be noted: SNORA18 siRNA (SEQ ID NOs: 5 and 6) in combination; Dab8 1 eq, Fol-Dab8A 3 eq, Fol-Dab8B 1 eq; S2-013 cells, 48 hours. How it is done:
as §1, §2, §3, §4

For another data set, the system named is SNORA22. As to conditions: SNORA22 siRNA (SEQ ID NOs: 11 and 12) in combination; Dab8 1 eq, Fol-Dab8A 3 eq, Fol-Dab8B 1 eq; S2-013 cells, 48 hours. How it is done: as §1, §2, §3, §4
The test system of the next data set is WASF2. To be noted: WASF2 siRNA (SEQ ID NOs: 9 and 10) in combination; Dab8 1 eq, Fol-Dab8A 3 eq, Fol-Dab8B 1 eq; S2-013 cells, 48 hours. How it is done:
as §1, §2, §3, §4

Data set [3] has as its system S2-013 pancreatic cancer cells or HPNE normal pancreatic duct epithelial cells. As to conditions: chemically-modified Alexa488-labeled SNORA22 siRNA, 2 equivalents, overnight. The text has this:
Chemically-modified SNORA22 siRNA (SEQ ID NOs: 27 and 28) prepared in Example 7 was labeled with Alexa488 (Thermo Fisher Scientific Inc.) and added with the folic acid-cationic oligopeptide complex (Fol-Dab8B, 2 equivalents) to the culture solution of S2-013 pancreatic cancer cells or HPNE normal pancreatic duct epithelial cells (ATCC) in a 4-well chamber (Thermo Fisher Scientific Inc.) (5×10^4 cells/well).

Read-outs that look alike come from different tables or passages of the source. Numbered stars: 1 amine (or outer) side, 2 acyl side, 3 side chain; on linkers, the order of the positions; unused ones are H or OH. Square brackets hold non-standard residues; d marks the D form. Peptide text beside a SMILES is read from it. * marks the point of attachment. Pteroyl = Nc1nc2ncc(CNc3ccc(C(=O)*)cc3)nc2c(=O)[nH]1; γGlu = O=C(O)[C@H](CCC(=O)[*:2])N[*:1]; Dab = NCC[C@H](N)C(=O)O

The term Tm denotes the temperature at which the thermal transition is half complete. Consider `NCC[C@H](NC(=O)[C@H](CCN)NC(=O)[C@H](CCN)NC(=O)[C@H](CCN)NC(=O)[C@H](CCN)NC(=O)[C@H](CCN)NC(=O)[C@H](CCN)NC(=O)[C@H](CCN)NC(=O)CNC(=O)CNC(=O)CNC(=O)CC[C@H](NC(=O)c1ccc(NCc2cnc3nc(N)[nH]c(=O)c3n2)cc1)C(=O)O)C(N)=O` [Fol-Dab8A] ({Pteroyl-γGlu}-GGG[Dab][Dab][Dab][Dab][Dab][Dab][Dab][Dab]-NH2), for which the Tm came to 75.2 °C in data set [1] (1 equivalent peptide); 76.8 °C in data set [1] (2 equivalents peptide); 77.7 °C in data set [1] (3 equivalents peptide); 78.7 °C in data set [1] (4 equivalents peptide); 79.1 °C in data set [1] (5 equivalents peptide). The ΔTm in data set [1] (1 equivalent peptide) was found to be 2.9; in data set [1] (2 equivalents peptide) it was 4.5; in data set [1] (3 equivalents peptide), 5.4; in data set [1] (4 equivalents peptide), 6.4; in data set [1] (5 equivalents peptide), 6.8. Besides, in data set [2], the “rate of increase in fluorescence intensity (degradation of RNA duplex by RNase A)” value is on record as “slower”. Further, the “knockdown effect on NUP85” value in the data set on NUP85 was “remarkable knockdown effects”. The “knockdown effect on SNORA18” value in the data set on SNORA18 is recorded as “remarkable knockdown effects”. The “knockdown effect on SNORA22” value in the data set on SNORA22 is listed as “remarkable knockdown effects”. Moreover, the “knockdown effect on WASF2” value in the data set with WASF2 is “remarkable knockdown effects”.
As to `NCC[C@H](NC(=O)[C@H](CCN)NC(=O)[C@H](CCN)NC(=O)[C@H](CCN)NC(=O)[C@H](CCN)NC(=O)[C@H](CCN)NC(=O)[C@H](CCN)NC(=O)[C@H](CCN)NC(=O)CNC(=O)CNC(=O)CNC(=O)[C@H](CCC(=O)O)NC(=O)c1ccc(NCc2cnc3nc(N)[nH]c(=O)c3n2)cc1)C(N)=O` [Fol-Dab8B] (Pteroyl-EGGG[Dab][Dab][Dab][Dab][Dab][Dab][Dab][Dab]-NH2), the Tm in data set [1] (1 equivalent peptide) was found to be 74.5 °C; in data set [1] (2 equivalents peptide), 76.4 °C; in data set [1] (3 equivalents peptide), 77.7 °C; in data set [1] (4 equivalents peptide), 78.5 °C; in data set [1] (5 equivalents peptide), 79.8 °C. For the same compound, the ΔTm in data set [1] (1 equivalent peptide) was 2.2; in data set [1] (2 equivalents peptide) it was 4.1; in data set [1] (3 equivalents peptide), 5.4; in data set [1] (4 equivalents peptide) it was 6.2; in data set [1] (5 equivalents peptide) it was 7.5. Further, the “rate of increase in fluorescence intensity (degradation of RNA duplex by RNase A)” value in data set [2] is “slower”. Further, the “knockdown effect on NUP85” value in the data set with NUP85 is “remarkable knockdown effects”. The “knockdown effect on SNORA18” value in the data set with SNORA18 was “remarkable knockdown effects”. For the same compound, the “knockdown effect on SNORA22” value with SNORA22 is given as “remarkable knockdown effects”. Besides, the “knockdown effect on WASF2” value in the data set on WASF2 is on record as “remarkable knockdown effects”. The “uptake of SNORA22 siRNA into S2-013 pancreatic cancer cells relative to normal cells (HPNE)” value in data set [3] was approximately 3 fold.
